{"source": "paper PMC2683804", "origin": "cited, not measured here", "key": {"[1]": {"molecular_target": "amyloid-β 1-40 1-40 (Homo sapiens) (UniProt P05067)"}, "[2]": {"molecular_target": "amyloid-β 1-42 1-42 (Homo sapiens) (UniProt P05067)"}}, "data": [{"substance": "human serum albumin (from UniProt P02768)", "values": [{"measurement": "Kd", "setting": "[1]", "value": 9.25, "unit": "µM"}, {"measurement": "Kd", "setting": "[2]", "value": 10.5, "unit": "µM"}]}]}
